Laboratory results from patent US20260183429A1 (TRUSTEES OF COLUMBIA UNIVERSITY IN THE CITY OF NEW YORK, published 2026).

Molecular target: T1, endogenous MFN2 in WT mouse embryonic fibroblasts (MEFs) (mouse, UniProt Q80U63 1-757)
T1 construct: Detected in situ by proximity ligation assay; also called mitofusin-2
T1 sequence (looked up): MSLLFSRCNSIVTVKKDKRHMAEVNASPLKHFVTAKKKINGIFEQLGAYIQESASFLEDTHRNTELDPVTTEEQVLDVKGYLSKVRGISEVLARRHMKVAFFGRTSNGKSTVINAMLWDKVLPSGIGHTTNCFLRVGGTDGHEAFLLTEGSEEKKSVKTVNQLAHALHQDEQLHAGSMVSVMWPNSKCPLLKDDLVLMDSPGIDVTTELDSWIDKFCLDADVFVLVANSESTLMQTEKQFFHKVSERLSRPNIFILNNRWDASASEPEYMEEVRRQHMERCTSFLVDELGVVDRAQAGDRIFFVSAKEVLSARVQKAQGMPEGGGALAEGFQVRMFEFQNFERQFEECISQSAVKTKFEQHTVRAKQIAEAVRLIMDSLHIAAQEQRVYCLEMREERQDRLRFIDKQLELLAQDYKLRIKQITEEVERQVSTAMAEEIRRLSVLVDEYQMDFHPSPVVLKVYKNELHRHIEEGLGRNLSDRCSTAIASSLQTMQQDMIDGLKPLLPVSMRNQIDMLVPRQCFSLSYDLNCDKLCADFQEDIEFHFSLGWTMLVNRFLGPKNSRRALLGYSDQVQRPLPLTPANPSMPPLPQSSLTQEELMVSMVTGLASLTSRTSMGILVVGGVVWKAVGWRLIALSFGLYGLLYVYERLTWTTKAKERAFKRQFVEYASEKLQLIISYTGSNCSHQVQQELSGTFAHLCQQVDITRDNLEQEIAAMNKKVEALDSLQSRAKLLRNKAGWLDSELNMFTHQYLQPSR
Assay: proximity ligation assay of MFN2 and ATAT1 in WT MEFs

B1: endogenous ATAT1 in WT mouse embryonic fibroblasts (MEFs) (enzyme, UniProt Q8K341 1-421, looked up)
chain: MEFPFDVDALFPERITVLDQHLRPPARRPGTTTPARVDLQQQIMTIVDELGKASAKAQHLPAPITSALRMQSNRHVIYILKDTSARPAGKGAIIGFLKVGYKKLFVLDDREAHNEVEPLCILDFYIHESVQRHGHGRELFQHMLQKERVEPHQLAIDRPSPKLLKFLNKHYNLETTVPQVNNFVIFEGFFAHQHRPPTSSLRATRHSRAAVADPIPAAPARKLPPKRAEGDIKPYSSSDREFLKVAVEPPWPLNRAPRRATPPAHPPPRSSSLGNSPDRGPLRPFVPEQELLRSLRLCPPHPTARLLLATDPGGSPAQRRRTRGTPWGLVAQSCHYSRHGGFNTSFLGTGNQERKQGEQEAEDRSASEDRVLLLDGSGEEPTQTGAPRAQAPPPQSWTVGGDIMNARVIRNLQERRSTRPW
notes: Detected in situ by proximity ligation assay
B1: binds.
